How the values were obtained:
[1] = target: nSh[change], Spike without transmembrane and cytoplasmic domains, with histidine tag (SARS coronavirus (Frankfurt isolate)) (UniProt P59594); experiment: self-association; western blot of cell lysate
[2] = target: nSh[change], Spike without transmembrane and cytoplasmic domains, with histidine tag (SARS coronavirus (Frankfurt isolate)) (UniProt P59594); experiment: self-association; non-heated SDS-PAGE and western blot

“nSh[change], Spike without transmembrane and cytoplasmic domains, with histidine tag (from UniProt P59594 14-1195)” showed a frequency of monomeric form [1] of 90%, a frequency of oligomeric form [1] of 10% and an efficiency of oligomerization [2] of under 10%.

From US20060257852A1 (priority 2003, published 2006)
